# Results as given in patent US20060252692A1, “Inhibitors for use in hemostasis” (ZymoGenetics, Inc., priority 2002, published 2006).
# B1: zsig37: adipocyte complement related protein homolog, polypeptide of SEQ ID NO:2, inhibits collagen-mediated platelet activation and the complement pathway (protein, listed as Homo sapiens)
# chain: MGSRGQGLLLAYCLLLAFASGLVLSRVPHVQGEQQEWEGTEELPSPPDHAERAEEQHEKYRPSQDQGLPASRCLRCCDPGTSMYPATAVPQINITILKGEKGDRGDRGLQGKYGKTGSAGARGHTGPKGQKGSMGAPGERCKSHYAAFSVGRKKPMHSNHYYQTVIFDTEFVNLYDHFNMFTGKFYCYVPGLYFFSLNVHTWNQKETYLHIMKNEEEVVILFAQVGDRSIMQSQSLMLELREQDQVWVRLYKGERENAIFSEELDTYITFSGYLVKHATEP
# Legend:
# [1] = test system: RAW 264.7 (ATCC No. CRL-2278); experiment: Binding of zsig37 to RAW 264.7 monocyte/macrophage line; conditions: mouse monocyte/macrophage line
# Description: This could potentially result in zsig37 involvement in monocyte phagocytosis, microbial killing, and cellular cytotoxicity. Following the two days in culture, there are macrophages present in the culture and zsig37 may be binding preferentially to this subset of cells. Zsig37 also bound to a mouse monocyte/macrophage line, RAW 264.7 (ATCC No. CRL-2278), indicating macrophage specificity.
# [2] = test system: iliac artery crush injury/stenosis; experiment: Rabbit iliac artery crush injury/stenosis model; format: in vivo, New Zealand White rabbits
# Protocol: The effect of zsig37 on blood flow dynamics following vascular injury in a rabbit iliac artery crush injury/stenosis model was also evaluated. Young adult male New Zealand White rabbits were anesthetized as described above. Via an abdominal incision, the aorto-iliac bifurcation was exposed and each iliac freed of surrounding tissues and the main branches ligated. Each iliac was fitted with an ultrasound flow probe to monitor blood flow through the vessel. Based on blood flow data, one iliac was selected to be used for the injury and the other was catheterized for delivery of the test sample. Rabbits were divided into dose groups of 6 animals/group. Test sample doses containing zsig37 increased in half-log increments from 3-1000 μg/kg over the selected infusion period. The test samples infusion was initiated followed by creation of a critical stenosis that reduced blood flow through the vessel by approximately 50%. After creation of the stenosis and a period of blood flow stabilization, the vessel was injured by crushing the vessel between the jaws of a smooth needle holder. The infusion was continued post-injury for a set period of time, 10-20 minutes. Blood flow through the injured vessel was monitored for 60 minutes post-injury. The animals were euthanized at he conclusion of the study period. […]
# [3] = test system: platelet rich thrombus formation induced by vascular injury; experiment: Platelet rich thrombus formation induced by vascular injury (Folts Model); format: in vivo, cynomolgus monkeys; conditions: remained open
# Protocol: The effect of zsig37 on platelet rich thrombus formation induced by vascular injury (Folts Model) was also tested with cynomolgus monkeys. In the absence of treatment, blood flow in the vessels decreased to zero flow, indicating an occlusion of the artery. In contrast, cynomolgus monkeys that received the vascular injury and were treated with 1.0 mg/kg zsig37 had vessels that were fully patent by 20 minutes following treatment and remained open. When cynomolgus monkeys received the vascular injury and were treated with 0.5 mg/kg zsig37, their vessels were fully patent by 30 minutes following treatment and then remained open.
# [4] = test system: platelets activated by CRP (platelet GPVI); experiment: Inhibition of CRP activation of platelets by zsig37; format: cell-based, human; conditions: plate coated with 5 μg/ml CRP; zsig37 0-200 μg/ml
# Protocol: The lysine containing CRP (Ac-GKO-(GPO)10-GKOGV) (SEQ ID NO:15) was synthesized and cross-linked essentially as described by described by Morton (Morton et al., Biochem. J., 306(2):337-344 (Mar. 1, 1995)). The potency of the cross-linked CRP was determined using a using a modified microplate platelet aggregation method as described previously (Bednar B., et al., Thrombosis Research, 77(5):453-463 (1995)). Platelet rich plasma (PRP) was prepared by centrifugation (150 g, 30 min.) from citrated blood obtained from healthy volunteers. Modified Hepes Tyrodes buffer (10 mM Hepes, 137 mM NaCl, 2.7 mM KCL, 0.4 mM NaH2PO4, 1.2mM NaHCO3, 0.1% dextrose and 0.2% BSA fraction V) was used to adjust the platelet concentration to 2.6×10^8/mL. To determine potency, triplicate wells of 0-20 μg/ml of CRP was mixed with platelets in a 96-well flat bottom plate. As a control, collagen-I norm was assayed in triplicate at a final concentration of 1.25 μg/mL. The plate was agitated on a microplate reader and turbidity was monitored as percent light transmitted at 632 nm. The EC50 for the CRP was determined from 3 assays to be 0.1-0.2 μg/ml. […] The plate was washed three times with 5% BSA/PBS and triplicate wells of 0-200 μg/ml of zsig37 was incubated for 1 hour at room temperature. Platelets were then added and assayed as described.
# TF-1 cells = experiment: Adhesion and spreading of TF-1 cells on zsig37-coated plates; format: cell-based; conditions: addition of soluble zsig37
# Protocol: The ability of zsig37 to stimulate adhesion and spreading of TF-1 cells was assayed as follows. A series of dilutions were prepared from C-terminal Glu-Glu-tagged zsig37, from 10 to 0.0625 ’g/ml, in either PBS or ELISA coating buffer (0.1 M NaCO3) and each was plated into a 96 well plate (Costar; Pleasanton, Calif.) at 100 μl/well. The plates were incubated at 37° C., 5% CO2 for 2 hours. The plates were then washed 3× with RPMI/10% FBS (RPMI 1640, 2 mM L-glutamine, 110 μg/ml sodium pyruvate, PSN and 10% heat inactivated fetal bovine serum) and allowed to block for 15 minutes.
# TF-1 cells (derived from acute myeloid leukemia cells) were resuspended in RPMI/10% FBS and plated into at 10,000 cells/well into the zsig37CEE-coated 96 well plates at a final volume of 120 μl/well. The plate was incubated at 37° C. under 5% CO2 for 2 hours. The plates were then washed 3× with PBS and 200 μl/well growth media (RPMI/10% FBS, 5 ng/ml GM-CSF) was added. The cells were microscopically inspected before and after the wash.
# A dye incorporation assay was also used to measure the number of adherent cells based on a colorimetric change and an increase in fluorescent signal. ALAMAR BLUE (AccuMed; Chicago, Ill.) was added to the 96 well plates and the cells were incubated at 37° C. under 5% CO2 overnight. […]
# platelets in whole blood = experiment: Whole blood platelet activation (Lumi-Aggregometer); format: cell-based, human
# Protocol: Blood was drawn from healthy volunteers into tubes containing sodium citrate, maintained at room temperature, and used within four hours of drawing. Whole blood was analyzed for platelet activation using a Chrono-Log 560A Whole Blood Lumi-Aggregometer (Chrono-Log Corp.; Haverton, Pa.) according to manufacturer's instructions. For each test point, 500 μl of blood were added to a reaction tube containing a stir bar and 500 μl of isotonic saline containing zsig37 at concentrations from 0 to 20 μg/ml. The mixture was incubated for four minutes followed by platelet activation initiated by the addition of 5 μl of 1 mg/ml cross-linked collagen (Chrono-Log Corp.) to the blood/zsig37 mixture. Inhibition of activation by ADP (final concentration 10 μM), and thrombin (final concentration lU/ml) were tested in a similar way.
molecule,measurement,setting,value
B1,binding to RAW 264.7,[1],bound
same,patency time,"[2]; 3-1000 μg/kg infusion, 60 minute period",tendency for zsig37 to promote increased patency time with increased dose up to 300 μg/kg
same,thrombolytic activity,"[2]; study with zsig37 hexamer, flow starting from occlusion",possesses thrombolytic activity
same,time to fully patent vessels following treatment,[3]; 0.5 mg/kg,≤ 30 min
same,time to fully patent vessels following treatment,[3]; 1.0 mg/kg,≤ 20 min
same,inhibition of CRP activation of platelets,[4],results from 3 of 6 assays demonstrated inhibition of CRP
same,block of cell adhesion to bound zsig37 by soluble zsig37,TF-1 cells,did not block adhesion
same,effect on platelet activation stimulated by ADP,platelets in whole blood; ADP final concentration 10 μM,no effect
same,inhibition of collagen-mediated platelet activation,"platelets in whole blood; cross-linked collagen, zsig37 0 to 20 μg/ml",dose dependent relationship between 5 and 20 μg/ml
same,effect on platelet activation stimulated by thrombin,platelets in whole blood; thrombin,no effect
